Measured values reported in patent publication US20250051474A1, “ANTI-CD97 ANTIBODIES AND ANTIBODY-DRUG CONJUGATES” (New York University, priority 2023, published 2025).

What was measured:
[1] = molecular target: T1, CD97 (ADGRE5) isoform 1 ectodomain, purified and biotinylated (human, UniProt P48960 21-552, limits assumed, biotinylated in vitro using the BirA enzyme); test: bead-based binding assay: biotinylated CD97 isoform 1 on streptavidin beads, Fab titrated, flow cytometry MFI, 1:1 fit; EXPERIMENT 2
T1 construct: the whole entry for isoform 1 is named here; also called CD97 isoform 1; Biotinylated CD97 isoform 1
T1 sequence: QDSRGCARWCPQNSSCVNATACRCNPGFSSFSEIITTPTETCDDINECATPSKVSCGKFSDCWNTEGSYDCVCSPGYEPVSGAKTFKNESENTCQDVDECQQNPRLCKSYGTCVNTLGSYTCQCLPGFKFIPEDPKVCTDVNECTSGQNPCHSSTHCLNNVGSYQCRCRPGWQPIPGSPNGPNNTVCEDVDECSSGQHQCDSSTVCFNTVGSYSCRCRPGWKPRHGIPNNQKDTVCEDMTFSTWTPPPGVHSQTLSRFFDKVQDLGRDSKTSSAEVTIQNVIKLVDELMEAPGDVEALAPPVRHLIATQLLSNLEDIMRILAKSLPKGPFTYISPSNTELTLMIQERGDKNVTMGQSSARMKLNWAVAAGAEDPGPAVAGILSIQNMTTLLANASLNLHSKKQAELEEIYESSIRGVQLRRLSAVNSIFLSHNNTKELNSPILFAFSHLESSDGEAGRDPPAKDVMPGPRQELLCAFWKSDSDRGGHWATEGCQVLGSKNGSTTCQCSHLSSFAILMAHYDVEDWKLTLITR
Experimental: (§1) KD values were determined from the curve fitting of a 1:1 binding model.

[2] = molecular target: T1, CD97 (ADGRE5) isoform 1 ectodomain, …; test: bead-based binding assay: biotinylated CD97 isoform 1 on streptavidin beads, Fab titrated, flow cytometry MFI, 1:1 fit; EXPERIMENT 1
Experimental: as §1

[3] = molecular target: T2, CD97 GAIN mutant T351K expressed on ExpiCHO cells (human, UniProt P48960 21-835); test: cell-based binding assay: CD97 GAIN mutant T351K transiently expressed on ExpiCHO cells, A8 Fab titrated, flow cytometry MFI; lower panel
T2 construct: numbering of isoform 1; whole entry named
T2 sequence: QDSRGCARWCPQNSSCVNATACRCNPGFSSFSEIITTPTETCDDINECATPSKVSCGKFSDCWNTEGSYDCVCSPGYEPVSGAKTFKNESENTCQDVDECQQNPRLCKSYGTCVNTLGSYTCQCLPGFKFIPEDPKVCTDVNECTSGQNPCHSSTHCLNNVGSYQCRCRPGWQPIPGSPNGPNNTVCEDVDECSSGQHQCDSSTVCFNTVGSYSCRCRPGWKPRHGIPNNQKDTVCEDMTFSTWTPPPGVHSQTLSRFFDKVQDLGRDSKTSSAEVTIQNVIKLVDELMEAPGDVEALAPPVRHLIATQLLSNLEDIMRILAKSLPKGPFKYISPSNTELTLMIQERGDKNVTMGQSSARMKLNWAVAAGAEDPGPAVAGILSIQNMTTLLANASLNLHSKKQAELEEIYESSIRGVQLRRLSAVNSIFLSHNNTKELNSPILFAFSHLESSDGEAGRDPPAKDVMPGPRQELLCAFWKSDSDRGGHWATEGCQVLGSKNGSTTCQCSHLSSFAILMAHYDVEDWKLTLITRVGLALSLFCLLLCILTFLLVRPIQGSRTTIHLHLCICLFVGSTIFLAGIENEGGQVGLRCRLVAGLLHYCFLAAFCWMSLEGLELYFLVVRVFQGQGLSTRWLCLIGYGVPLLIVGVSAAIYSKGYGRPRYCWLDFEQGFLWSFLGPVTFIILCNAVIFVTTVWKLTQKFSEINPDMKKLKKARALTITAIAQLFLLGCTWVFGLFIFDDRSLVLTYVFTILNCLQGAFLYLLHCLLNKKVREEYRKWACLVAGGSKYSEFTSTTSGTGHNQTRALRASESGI
Experimental: as §1

[4] = molecular target: T3, CD97 GAIN mutant Q376A expressed on ExpiCHO cells (human, UniProt P48960 21-835); test: cell-based binding assay: CD97 GAIN mutant transiently expressed on ExpiCHO cells, A8 Fab titrated, flow cytometry MFI, 1:1 fit; upper panel
T3 construct: numbering of isoform 1; whole entry named
T3 sequence: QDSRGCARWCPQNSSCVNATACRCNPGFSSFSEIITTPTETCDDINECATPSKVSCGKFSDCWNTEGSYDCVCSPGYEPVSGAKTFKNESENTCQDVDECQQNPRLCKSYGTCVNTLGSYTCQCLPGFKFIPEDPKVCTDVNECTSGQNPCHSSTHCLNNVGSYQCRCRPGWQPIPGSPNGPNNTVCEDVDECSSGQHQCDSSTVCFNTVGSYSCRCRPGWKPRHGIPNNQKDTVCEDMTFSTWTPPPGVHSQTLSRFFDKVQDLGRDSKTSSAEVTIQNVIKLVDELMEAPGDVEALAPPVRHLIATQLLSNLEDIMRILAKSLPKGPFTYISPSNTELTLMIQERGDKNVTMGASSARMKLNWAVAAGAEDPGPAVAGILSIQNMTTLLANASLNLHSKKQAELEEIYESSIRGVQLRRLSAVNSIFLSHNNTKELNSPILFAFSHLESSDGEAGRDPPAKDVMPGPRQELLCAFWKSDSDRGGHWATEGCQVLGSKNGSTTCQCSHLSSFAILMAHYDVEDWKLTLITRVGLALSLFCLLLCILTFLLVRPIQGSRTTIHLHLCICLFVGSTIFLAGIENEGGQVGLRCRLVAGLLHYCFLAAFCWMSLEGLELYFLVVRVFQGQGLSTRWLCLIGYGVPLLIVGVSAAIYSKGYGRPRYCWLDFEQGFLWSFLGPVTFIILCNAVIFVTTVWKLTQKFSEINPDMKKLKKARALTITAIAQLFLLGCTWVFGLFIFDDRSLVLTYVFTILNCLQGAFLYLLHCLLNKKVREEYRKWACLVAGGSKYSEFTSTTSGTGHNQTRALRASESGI
Experimental: as §1

Kd [1]: 9.5 nM | Kd [2]: 16 nM | binding result [3]: no binding (tested: 1000 nM) | Kd [4]: 310 nM
B1: Antibody clone A8, Fab format (Fab, V domains shown)
VH: EVQLVESGGGLVQPGGSLRLSCAASGFTISSYSIHWVRQAPGKGLEWVASISPYYGSTSYADSVKGRFTISADTSKNTAYLQMNSLRAEDTAVYYCARSWYYYEQNPYWYQKEEQALDYWGQGTLVTVSS
VL: DIQMTQSPSSLSASVGDRVTITCRASQSVSSAVAWYQQKPGKAPKLLIYSASSLYSGVPSRFSGSRSGTDFTLTISSLQPEDFATYYCQQSVYSPVTFGQGTKVEIKR
notes: Fab; also called wild type A8
